From patent US8383806B2, “Method of reversing carboplatin resistance by inhibition of HGFIN” (University of Medicine and Dentistry of New Jersey, priority 2000, dated 2013)

Columns and labels:
[1] = system: cancer stem cells from breast cancer cell lines; experiment: Drug exposure of breast cancer stem cell clones; assay type: cell-based; conditions: selected clones
Description: Breast cancer cells are cultured in the presence of each or combinations of the anti-cancer agents 5-FU, Methothrexate, and Cytarabine. […] Cells are passaged at least 5 times in high concentrations of anti-cancer drugs. […] Breast cancer cells were subjected to rounds of exposure to 5-fluorouracil (5-FU), methotrexate, and cytarabine.

HGFIN = biological target: T1, HGFIN (Homo sapiens, UniProt Q14956); experiment: SELDI ProteinChip (PS1) HGFIN-SP interaction; assay type: binding; conditions: HGFIN covalently bound to PS1 chip, SP added
T1 construct: made in house
T1 sequence (Q14956 23-560 isoform Q14956-2): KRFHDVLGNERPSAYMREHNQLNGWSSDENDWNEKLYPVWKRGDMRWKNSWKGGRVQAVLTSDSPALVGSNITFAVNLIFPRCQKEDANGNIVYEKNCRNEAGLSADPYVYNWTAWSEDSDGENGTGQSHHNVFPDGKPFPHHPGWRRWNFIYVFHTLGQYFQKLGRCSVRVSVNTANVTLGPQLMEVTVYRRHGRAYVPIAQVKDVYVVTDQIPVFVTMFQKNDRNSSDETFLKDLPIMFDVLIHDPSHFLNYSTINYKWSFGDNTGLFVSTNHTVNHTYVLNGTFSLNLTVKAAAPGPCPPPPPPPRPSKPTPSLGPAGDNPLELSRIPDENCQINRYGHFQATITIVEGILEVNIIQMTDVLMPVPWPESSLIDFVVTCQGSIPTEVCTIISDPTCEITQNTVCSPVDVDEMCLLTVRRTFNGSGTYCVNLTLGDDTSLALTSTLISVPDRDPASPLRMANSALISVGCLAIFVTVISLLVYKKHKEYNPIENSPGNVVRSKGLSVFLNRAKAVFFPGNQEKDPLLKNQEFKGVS
Description: Before studying the interaction between SP and HGFIN, each protein was profiled by the Surface Enhanced Laser Desorption/Ionization (SELDI) ProteinChip Array technology (Ciphergen Biosystems Inc., Fremont, Calif.). Normal phase (NP1) arrays were used for profiling and preactivated surface arrays (PS1) for HGFIN-SP interaction. For profiling studies, 2 μg of purified HGFIN or 2 μg of SP were spotted directly onto the NP1 arrays. Prior to adding of the proteins, chips were pre-wet with PBS. Arrays were incubated at room temperature until the protein was absorbed, which took approximately 5 to 10 minutes. […] Chips were immediately analyzed using linear, time-lag focusing laser desorption/ionization SELDI-time-of-flight mass spectrometer (Model PBS II). Accurate mass was determined by collecting approximately 150 averaged laser shots. […]
HGFIN-SP interaction was studied by pre-treating the PS1 chips with 50% acetonitrile for 3 minutes. […] CHCA was applied and the non-covalently bound SP was detected with the SELDI-Time of Flight Mass spectrometer as described for the profiling studies for HGFIN.
Protein-protein interactions were performed with the PS1 protein chip since this chip was determined to covalently bind HGFIN. SP was added to the chip and then detected with the SELDI system.

[2] = biological target: T2, Fibronectin-Fragment III-C (FN-IIIC) (Homo sapiens, UniProt P02751); experiment: SELDI ProteinChip (PS1) positive control, FN-IIIC and SP; assay type: binding; conditions: FN-IIIC covalently coated
T2 construct: 20 ng fibronectin, fragment III-C (positive control); purchased Sigma (St Louis, Mo.)
Description: HGFIN-SP interaction was studied by pre-treating the PS1 chips with 50% acetonitrile for 3 minutes. After this, the chips were incubated for 45 minutes with the following: 2.5 μg HGFIN (experimental sample), anti-Id2, an unrelated IgG regarding its ability to complex with SP and was therefore treated as a negative control, rabbit anti-SP (positive control) or 20 ng fibronectin, fragment III-C (positive control). The arrays were blocked for 25 minutes with 1 M ethanolamine and washed with PBS+0.5% TRITON-X (2×) and a final PBS wash step. After this the chips were washed with PBS+TRITON-X, PBS, rinsed with 5 mM HEPES and then dried. CHCA was applied and the non-covalently bound SP was detected with the SELDI-Time of Flight Mass spectrometer as described for the profiling studies for HGFIN.
Fibronectin has been reported to bind SP. Therefore, this property of fibronectin was used as a positive control for SP interaction on the SELDI system. […] Similar results were shown with another positive control: rabbit anti-SP (covalently bound) and SP. No peak was detected in two negative controls, which consisted of bovine serum albumin or an unrelated antibody (anti-Id2) covalently bound to the surface of PS1.

T2 sequence (P02751 627-702 limits assumed): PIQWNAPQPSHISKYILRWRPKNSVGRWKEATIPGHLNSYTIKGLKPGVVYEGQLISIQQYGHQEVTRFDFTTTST

non-covalently bound SP detected on HGFIN-coated PS1 chip (SELDI) (HGFIN)	SP detected on FN-IIIC-coated PS1 chip (SELDI) [2]	Compound	response of cancer stem cells to the drug [1]
		O=c1[nH]cc(F)c(=O)[nH]1 [5-FU, 5-fluorouracil]	resistant
single peak at ˜13000 Da	single peak at ˜13000 Da	Substance P [SP]	
